Laboratory results as given in paper PMC7766840, “Preclinical Evaluation of the Copper-64 Labeled GRPR-Antagonist RM26 in Comparison with the Cobalt-55 Labeled Counterpart for PET-Imaging of Prostate Cancer” (Molecules, 2020).

Experiments:
[1] = in vivo; design: species or system BALB/c nu/nu mice; settings: female, BALB/c nu/nu, mouse, total radioactivity
Protocol: (§1) For biodistribution studies, 16 female BALB/c nu/nu mice (age 15–16 weeks) bearing PC-3 xenografts (inoculated subcutaneously with 8 × 10^6 PC-3 cells three weeks before the experiment) were randomized into groups of four. The mice were intravenously injected into the tail vein with a mixture of [^64Cu]Cu-X-RM26 and [^57Co]Co-X-RM26 and were euthanized at 3 and 24 h p.i. Injected activity was adjusted to 300 kBq/mouse for ^64Cu- and 40 kBq/mouse for ^57Co-labeled conjugates. The total injected peptide mass was adjusted to 45 pmol/mouse (in 100 μL). Blood, kidney, pancreas, liver, lung, bone, muscle, tumor, spleen, stomach, small intestines, and the rest of the GI tract with content were collected, weighed, and their activity content was measured in a gamma-counter. The ^64Cu activities were determined from measurements performed on the day of the experiment, while the ^57Co activities were measured after two weeks to allow the ^64Cu to decay. Tissue uptake of the radiopeptides was calculated as a percent of injected dose per gram tissue (%ID/g), with exception of the GI tract for which tissue uptake was calculated as %ID per whole sample.

[2] = test system: PC-3 xenografts; assay: in vivo; design: species or system BALB/c nu/nu mice; settings: mouse; for Blood uptake / Kidney uptake / Liver uptake / Small int. uptake / Stomach uptake / Tumor uptake / Lung uptake / Pancreas uptake / GI tract uptake / Bone uptake / Spleen uptake: female, BALB/c nu/nu; for GI tract uptake: iv, 45 pmol/mouse
Protocol: as §1

Compound	Blood uptake ([2]; 3 h)	Kidney uptake ([2]; 3 h)	Liver uptake ([2]; 3 h)	Small int. uptake ([2]; 3 h)	Stomach uptake ([2]; 3 h)	Tumor uptake ([2]; 3 h)	Lung uptake ([2]; 24 h)	Pancreas uptake ([2]; 24 h)	GI tract uptake ([2]; 3 h)	GI tract uptake ([2]; 24 h)	Pancreas uptake ([2]; 3 h)	Blood uptake ([2]; 24 h)	Liver uptake ([2]; 24 h)	Tumor uptake ([2]; 24 h)	other results
CC(C)C[C@H](NC(=O)C[C@H](O)[C@H](CC(C)C)NC(=O)[C@H](Cc1c[nH]cn1)NC(=O)CNC(=O)[C@@H](NC(=O)[C@H](C)NC(=O)[C@H](Cc1c[nH]c2ccccc12)NC(=O)[C@H](CCC(N)=O)NC(=O)[C@@H](Cc1ccccc1)NC(=O)COCCOCCNC(=O)CN1CCN(CC(=O)O)CCN(CC(=O)O)CC1)C(C)C)C(N)=O [[^57Co]Co-NOTA-PEG2-RM26]	0.02 %ID/g	0.51 %ID/g	0.06 %ID/g	0.34 %ID/g	0.59 %ID/g	3.27 %ID/g	0.02 %ID/g	0.02 %ID/g	0.26 %ID	0.02 %ID	–	–	–	–	tissue uptake at 3 h ([1]; Bone uptake): 0.11 %ID/g; tissue uptake at 24 h ([1]; Muscle uptake): 0.01 %ID/g; tissue uptake at 24 h ([1]; Spleen uptake): 0.04 %ID/g; tissue uptake at 24 h ([1]; Tumor uptake): 0.31 %ID/g
CC(C)C[C@H](NC(=O)C[C@H](O)[C@H](CC(C)C)NC(=O)[C@H](Cc1c[nH]cn1)NC(=O)CNC(=O)[C@@H](NC(=O)[C@H](C)NC(=O)[C@H](Cc1c[nH]c2ccccc12)NC(=O)[C@H](CCC(N)=O)NC(=O)[C@@H](Cc1ccccc1)NC(=O)COCCOCCNC(=O)CCC(C(=O)O)N1CCN(CC(=O)O)CCN(CC(=O)O)CC1)C(C)C)C(N)=O (stereo partly drawn) [[^64Cu]Cu-NODAGA-PEG2-RM26, metal not drawn]	–	0.90 %ID/g	0.28 %ID/g	0.24 %ID/g	0.27 %ID/g	2.31 %ID/g	0.04 %ID/g	0.04 %ID/g	1.02 %ID	0.03 %ID	0.27 %ID/g	0.02 %ID/g	0.16 %ID/g	0.16 %ID/g	Bone uptake ([2]; 3 h): 0.08 %ID/g; Lung uptake ([2]; 3 h): 0.12 %ID/g; Spleen uptake ([2]; 3 h): 0.05 %ID/g; Bone uptake ([2]; 24 h): 0.13 %ID/g; Kidney uptake ([2]; 24 h): 0.12 %ID/g; Small int. uptake ([2]; 24 h): 0.05 %ID/g; Spleen uptake ([2]; 24 h): 0.02 %ID/g; Stomach uptake ([2]; 24 h): 0.08 %ID/g; Muscle uptake ([2]; 24 h): 0.00 %ID/g
CC(C)C[C@H](NC(=O)C[C@H](O)[C@H](CC(C)C)NC(=O)[C@H](Cc1c[nH]cn1)NC(=O)CNC(=O)[C@@H](NC(=O)[C@H](C)NC(=O)[C@H](Cc1c[nH]c2ccccc12)NC(=O)[C@H](CCC(N)=O)NC(=O)[C@@H](Cc1ccccc1)NC(=O)COCCOCCNC(=O)CN1CCN(CC(=O)O)CCN(CC(=O)O)CC1)C(C)C)C(N)=O [[^64Cu]Cu-NOTA-PEG2-RM26, metal not drawn]	0.06 %ID/g	–	0.59 %ID/g	0.72 %ID/g	1.19 %ID/g	–	–	–	0.76 %ID	0.07 %ID	1.31 %ID/g	0.04 %ID/g	0.49 %ID/g	0.42 %ID/g	tissue uptake at 24 h ([1]; Bone uptake): 0.15 %ID/g; tissue uptake at 3 h ([1]; Kidney uptake): 0.46 %ID/g; tissue uptake at 24 h ([1]; Kidney uptake): 0.25 %ID/g; tissue uptake at 3 h ([1]; Muscle uptake): 0.02 %ID/g; tissue uptake at 24 h ([1]; Small int. uptake): 0.12 %ID/g; tissue uptake at 3 h ([1]; Spleen uptake): 0.1 %ID/g; tissue uptake at 24 h ([1]; Stomach uptake): 0.14 %ID/g; tissue uptake at 3 h ([1]; Tumor uptake): 3.94 %ID/g
